Measured values reported in publication PMC3967714 (Cell reports, 2013).
Where no end group is shown, it is not given here.

T1: Dido3 PHD finger (Homo sapiens, UniProt Q9BTC0)
T1 sequence (Q9BTC0 266-325): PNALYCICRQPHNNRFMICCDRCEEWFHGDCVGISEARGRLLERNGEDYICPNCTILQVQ

T2: Dido3 PHD E289A (UniProt Q9BTC0-4 266-325, E289A)
T2 sequence: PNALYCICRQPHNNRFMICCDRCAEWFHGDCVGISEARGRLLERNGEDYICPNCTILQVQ

T3: Dido3 PHD H277A (UniProt Q9BTC0-4 266-325, H277A)
T3 sequence: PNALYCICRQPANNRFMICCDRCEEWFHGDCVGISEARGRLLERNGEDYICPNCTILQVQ

T4: Dido3 PHD D286A (UniProt Q9BTC0-4 266-325, D286A)
T4 sequence: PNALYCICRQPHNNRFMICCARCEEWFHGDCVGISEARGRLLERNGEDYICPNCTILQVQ


How the values were obtained:
[1] = biological target: T1, Dido3 PHD finger; type: binding; settings: wild-type Dido3 PHD, tryptophan fluorescence and NMR, peptides aa 1–12 of H3
[2] = biological target: T1, Dido3 PHD finger; assay: 1H,15N HSQC NMR titration of 15N-labeled Dido3 PHD with histone peptides; type: binding; settings: for chemical-shift changes in 1H,15N HSQC spectra: peptides aa 1–12 of H3 (H3K4me0: aa 1–19)
[3] = biological target: T2, Dido3 PHD E289A; assay: other fluorescence titration + NMR titration
[4] = biological target: T3, Dido3 PHD H277A; assay: other fluorescence titration + NMR titration
[5] = biological target: T4, Dido3 PHD D286A; assay: other fluorescence titration + NMR titration

Molecule | weaker binding relative to H3K4me3 [1] | exchange regime on the NMR timescale ([2]; peptide aa 1–12 of H3) | chemical-shift changes in 1H,15N HSQC spectra [2] | fold decrease of binding against the wild type [3] | binding result [4] | fold decrease of binding against the wild type [5]
H3K4me1: H3K4me1 peptide (aa 1–12 of H3) | 85 fold | intermediate exchange regime | very similar pattern of chemical-shift changes | – | – | –
H3K4me2: H3K4me2 peptide (aa 1–12 of H3) | 6 fold | – | very similar pattern of chemical-shift changes | – | – | –
ARTK(Me3)QTARKSTG (peptide, UniProt P68431 2-13, looked up) [H3K4me3 peptide (aa 1-12 of H3)] | – | – | – | ~4 fold | binds | ~200 fold
